# Tests used:
# [1] = target: Cys^6-antag: secretin antagonist (c[E^16, K^20], Y^10, I^17, Cha^22, R^25)sec(5–27) with cysteine in position 6; experiment: cysteine trapping with 125I-labeled probe, SDS-PAGE autoradiography densitometry; settings: SecR cysteine replacement mutants transiently expressed in COS-1 cells; nonreducing conditions; three experiments; read off a plot
# [2] = target: Cys^5-antag: secretin antagonist (c[E^16, K^20], Y^10, I^17, Cha^22, R^25)sec(5–27) with cysteine in position 5; experiment: as above; settings: SecR cysteine replacement mutants transiently expressed in COS-1 cells; nonreducing conditions; three experiments; read off a plot
Substance,response (% of maximal signal within this loop) [1],response (% of maximal signal within this loop) [2]
"wild-type human secretin receptor, on COS-1 cells (from UniProt P47872) M366C",35,18
"wild-type human secretin receptor, on COS-1 cells (from UniProt P47872) D364C",33,22
"wild-type human secretin receptor, on COS-1 cells (from UniProt P47872) I368C",20,12
"wild-type human secretin receptor, on COS-1 cells (from UniProt P47872) E373C",62,28
"wild-type human secretin receptor, on COS-1 cells (from UniProt P47872) L374C",88,35
"wild-type human secretin receptor, on COS-1 cells (from UniProt P47872) E367C",12,4
"wild-type human secretin receptor, on COS-1 cells (from UniProt P47872) A359C",98,88
"wild-type human secretin receptor, on COS-1 cells (from UniProt P47872) A365C",37,22
"wild-type human secretin receptor, on COS-1 cells (from UniProt P47872) E363C",21,22
"wild-type human secretin receptor, on COS-1 cells (from UniProt P47872) S361C",80,87
"wild-type human secretin receptor, on COS-1 cells (from UniProt P47872) F360C",70,63

# Next, values leading:
response (% of maximal signal within this loop) [1],response (% of maximal signal within this loop) [2],Substance
41,14,"wild-type human secretin receptor, on COS-1 cells (from UniProt P47872) Q369C"
93,75,"wild-type human secretin receptor, on COS-1 cells (from UniProt P47872) F358C"
40,30,"wild-type human secretin receptor, on COS-1 cells (from UniProt P47872) P362C"
43,19,"wild-type human secretin receptor, on COS-1 cells (from UniProt P47872) L370C"
46,28,"wild-type human secretin receptor, on COS-1 cells (from UniProt P47872) F372C"
40,22,"wild-type human secretin receptor, on COS-1 cells (from UniProt P47872) F371C"

# — article PMC7435274
